The results in this text go back to patent US12171828B2, “Quil A fraction with low toxicity and use thereof” (Novavax AB, priority 2003, dated 2024).

The test system of the test is OVA. Put plainly: OVA-specific serum antibody ELISA, QWT-iscoms with CT or MPL (Example 7). The class given is in vivo, NMRI mice. As to conditions: 5 μg OVA without adjuvant. As for the experimental part:
Sera were collected 3 weeks after priming and 2 weeks after the booster injection.
Serum antibody determination, including total IgG, and subclasses IgG1 and IgG2a, was carried in out in ELISA as described in example 1.

B1: OVA alone: ovalbumin, weak model antigen, given without adjuvant (protein, UniProt P01012 2-386, looked up)
Ovalbumin: GSIGAASMEFCFDVFKELKVHHANENIFYCPIAIMSALAMVYLGAKDSTRTQINKVVRFDKLPGFGDSIEAQCGTSVNVHSSLRDILNQITKPNDVYSFSLASRLYAEERYPILPEYLQCVKELYRGGLEPINFQTAADQARELINSWVESQTNGIIRNVLQPSSVDSQTAMVLVNAIVFKGLWEKAFKDEDTQAMPFRVTEQESKPVQMMYQIGLFRVASMASEKMKILELPFASGTMSMLVLLPDEVSGLEQLESIINFEKLTEWTSSNVMEERKIKVYLPRMKMEEKYNLTSVLMAMGITDVFSSSANLSGISSAESLKISQAVHAAHAEINEAGREVVGSAEAGVDAASVSEEFRADHPFLFCIKHIATNAVLFFGRCVSP
For the molecule B1, the “serum IgG after booster” value was “low serum levels of IgG”.
